Experimental data from patent US20200369766A1 (LEIDOS, published 2020).
Values joined by “and” are separate entries in the source; they are usually repeats but may differ in a detail not shown here. Identical values can stand only once.

Legend:
[1] = target: Tag1-LAG3; assay: HTRF LAG3/MHC-II; peptide log M -10.0206
[2] = target: Tag1-LAG3; assay: HTRF LAG3/MHC-II; peptide log M -7.0103
[3] = target: Tag1-LAG3; assay: HTRF LAG3/MHC-II; peptide log M -8.81648
[4] = target: Tag1-LAG3; assay: HTRF LAG3/MHC-II; peptide log M -8.21442
[5] = target: Tag1-LAG3; assay: HTRF LAG3/MHC-II; peptide log M -5.80618
[6] = target: Tag1-LAG3; assay: HTRF LAG3/MHC-II; peptide log M -10.6227
[7] = target: Tag1-LAG3; assay: HTRF LAG3/MHC-II; peptide log M -4.60206
[8] = target: Tag1-LAG3; assay: HTRF LAG3/MHC-II; peptide log M -9.41854
[9] = target: Tag1-LAG3; assay: HTRF LAG3/MHC-II; peptide log M -5.20412
[10] = target: Tag1-LAG3; assay: HTRF LAG3/MHC-II; peptide log M -4
[11] = target: Tag1-LAG3; assay: HTRF LAG3/MHC-II; peptide log M -6.40824
[12] = target: Tag1-LAG3; assay: HTRF LAG3/MHC-II; peptide log M -7.61236
[13] = target: T1, human LAG3 expressed on Jurkat T cell line (human, UniProt P18627 23-525); assay: cell-based or functional assay
T1 sequence (looked up): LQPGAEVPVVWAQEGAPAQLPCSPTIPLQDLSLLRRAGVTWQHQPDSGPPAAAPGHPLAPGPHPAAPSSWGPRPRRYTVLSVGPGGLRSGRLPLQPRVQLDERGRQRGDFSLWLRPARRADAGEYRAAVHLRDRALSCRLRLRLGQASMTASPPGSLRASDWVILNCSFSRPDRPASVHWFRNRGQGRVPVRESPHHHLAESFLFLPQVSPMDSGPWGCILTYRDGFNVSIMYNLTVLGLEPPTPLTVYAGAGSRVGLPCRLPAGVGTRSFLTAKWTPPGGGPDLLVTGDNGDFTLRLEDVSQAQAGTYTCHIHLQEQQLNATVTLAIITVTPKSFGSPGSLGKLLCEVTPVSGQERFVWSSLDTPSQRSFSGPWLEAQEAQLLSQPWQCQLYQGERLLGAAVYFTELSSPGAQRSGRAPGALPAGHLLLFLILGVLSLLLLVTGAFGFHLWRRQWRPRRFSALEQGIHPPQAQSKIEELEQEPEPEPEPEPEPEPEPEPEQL

B1: ovalbumin (OVA) peptide (peptide)
peptide: ISQAVHAAHAEINEAGR
HTRF ratio [1]: 8990 and 8460 and 8360 | HTRF ratio [2]: 8970 and 8380 and 8650 | HTRF ratio [3]: 8720 and 8640 and 8680 | HTRF ratio [4]: 8620 and 8990 and 9220 | HTRF ratio [5]: 8830 and 9370 and 9180 | HTRF ratio [6]: 9090 and 8890 and 8630 | HTRF ratio [7]: 8470 and 8680 and 8450 | HTRF ratio [8]: 8400 and 8790 and 8620 | HTRF ratio [9]: 8620 and 8580 and 9020 | HTRF ratio [10]: 8490 and 8910 and 7150 | HTRF ratio [11]: 8630 and 9280 and 9190 | HTRF ratio [12]: 8780 and 8570 and 9020

B2: LAG3-11 (peptide)
peptide: SAPWEPLHWPEDWWQGTGEW
fold inhibition (fold increase in luciferase activity, RLUs at 100 µM against 0.64 µM) [13]: ~2.8 fold

B3: LAG3-56 (peptide)
peptide: HIQNWSYWLNQDMMNQQVWKS
fold inhibition (fold increase in luciferase activity, RLUs at 100 µM against 0.64 µM) [13]: ~2.2 fold
